Source: article PMC10764323

Target: His-tAmSOD2 (Avicennia marina MnSOD, AmSOD2, without the mitochondrial transit peptide) (Avicennia marina)
Assay: SEC; gel filtration chromatography on a calibrated Biosil-250 analytical column, elution compared with standard proteins; native mass of almost 116 kDa against a single band of 26 kDa after SDS and DTT

- stoichiometry N: 4
Substance: His-tAmSOD2 (Avicennia marina MnSOD, AmSOD2, without the mitochondrial transit peptide) (enzyme)
